From patent publication US10047341B2, “Generation of keratinocytes from pluripotent stem cells and maintenance of keratinocyte cultures” (FUJIFILM Cellular Dynamics, Inc., priority 2014, dated 2018)

Assays:
[1] = test system: primary human keratinocytes; test: Long-term culture of primary keratinocytes (population doubling); conditions: niacinamide 3 mM, BMP4 0.5 ng/mL as components of KCM4
Description: Keratinocytes were maintained in the indicated medium and passaged every 4-5 days (at ˜80% confluence). For passage, keratinocytes were incubated with a 0.1% Trypsin in Versene solution at 37° C. for 5 minutes. The trypsin was neutralized with 0.5 mg/mL of trypsin inhibitor. The cells were centrifuged at 1200 rpm for 4 min. Cells were counted with a Cellometer (Nexcelom). Cells (25,000-50,000) were plated per well of 6-well plates in the indicated keratinocyte culture media. Media was changed every other day.
Cells were maintained by serial passage at ˜80% confluence until senescence. The total number of cell doublings for each passage was calculated using the following formula: 3.32 log(N/No). Where No refers to the number of cells plated at the beginning of each passage and N is the number of cells recovered at the end of each passage.

[2] = test system: human ESC/iPSCs; test: iKCs derivation from human ESC/iPSCs: critical medium components; type: cell-based; conditions: Passage 0, Day 14 differentiation culture, anti-K14 immunofluorescence

B1: BMP4: growth factor BMP4, neuronal fate suppressor, medium supplement (protein, UniProt P12644 293-408, looked up)
Bone morphogenetic protein 4: SPKHHSQRARKKNKNCRRHSLYVDFSDVGWNDWIVAPPGYQAFYCHGDCPFPLADHLNSTNHAIVQTLVNSVNSSIPKACCVPTELSAISMLYLDEYDKVVLKNYQEMVVEGCGCR
Q: For B1, which “life span and stemness of primary keratinocytes in culture” value [1] is on record?
A: maintained the stemness of primary keratinocyte stem cells in culture

Q: What about the “life span and stemness of primary keratinocytes in culture” value ([1]; listed as BMP-4) of the same molecule?
A: extend the life span of primary keratinocytes in culture

B2: FGF7: fibroblast growth factor FGF7 (protein, UniProt P21781 32-194, looked up)
Fibroblast growth factor 7: CNDMTPEQMATNVNCSSPERHTRSYDYMEGGDIRVRRLFCRTQWYLRIDKRGKVKGTQEMKNNYNIMEIRTVAVGIVAIKGVESEFYLAMNKEGKLYAKKECNEDCNFKELILENHYNTYASAKWTHNGGEMFVALNQKGIPVRGKKTKKEQKTAHFLPMAIT
Q: How did the “K14 expression with different fibroblast growth factors” value [2] turn out when B2 was run?
A: did not promote homogeneous K14 expression
